Source: the supplement of paper PMC5998384

Key:
[1] = test system: HeLa Kyoto; assay: solubility in G1/S (NP-40 vs SDS abundance) (log2 ratio); higher = more soluble; settings: cell cycle stage: G1/S
[2] = test system: HeLa Kyoto; assay: melting temperature (median over replicates), in situ; higher = more thermally stable
[3] = test system: HeLa Kyoto; assay: solubility change mitosis vs G1/S (difference of NP-40 vs SDS log2 ratios) (log2 ratio difference); higher = more soluble in mitosis
[4] = test system: HeLa Kyoto; assay: thermal stability score vs G1/S (z-score of summed log2 fold changes over temperatures); higher = more thermally stable than in G1/S
[5] = cell cycle stage: early G1 (4.5 h after nocodazole release)
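Wherever melting temperature (median over replicates), in situ is given: HeLa Kyoto cells synchronized by double thymidine or nocodazole block, proteins quantified by TMT10plex mass spectrometry, three independent biological replicates.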
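Wherever solubility change mitosis vs G1/S (difference of NP-40 vs SDS log2 ratios) is given: synchronized HeLa Kyoto cells (double thymidine block for G1/S, nocodazole release for mitosis), protein amounts in NP-40 versus SDS lysates quantified by mass spectrometry, three biological replicates.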
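Wherever solubility in G1/S (NP-40 vs SDS abundance) is given: HeLa Kyoto cells arrested at G1/S by double thymidine block, proteins quantified by TMT10plex mass spectrometry in mild NP-40 versus SDS extracts, three biological replicates.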
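Wherever thermal stability score vs G1/S (z-score of summed log2 fold changes over temperatures) is given: synchronized HeLa Kyoto cells, proteins quantified by TMT10plex mass spectrometry, three biological replicates, mitosis taken 0.5 h after nocodazole release, G1/S directly after double thymidine block.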

Substance | solubility in G1/S (log2) [1] | melting temperature ([2]; cell cycle stage: G1/S) [°C] | melting temperature ([2]; cell cycle stage: mitosis) [°C] | solubility change mitosis (log2) [3] | thermal stability score [4, 5] | thermal stability score ([4]; cell cycle stage: mitosis)
MIAAQLLAYYFTELKDDQVKKIDKYLYAMRLSDETLIDIMTRFRKEMKNGLSRDFNPTATVKMLPTFVRSIPDGSEKGDFIALDLGGSSFRILRVQVNHEKNQNVHMESEVYDTPENIVHGSGSQLFDHVAECLGDFMEKRKIKDKKLPVGFTFSFPCQQSKIDEAILITWTKRFKASGVEGADVVKLLNKAIKKRGDYDANIVAVVNDTVGTMMTCGYDDQHCEVGLIIGTGTNACYMEELRHIDLVEGDEGRMCINTEWGAFGDDGSLEDIRTEFDREIDRGSLNPGKQLFEKMVSGMYLGELVRLILVKMAKEGLLFEGRITPELLTRGKFNTSDVSAIEKNKEGLHNAKEILTRLGVEPSDDDCVSVQHVCTIVSFRSANLVAATLGAILNRLRDNKGTPRLRTTVGVDGSLYKTHPQYSRRFHKTLRRLVPDSDVRFLLSESGSGKGAAMVTAVAYRLAEQHRQIEETLAHFHLTKDMLLEVKKRMRAEMELGLRKQTHNNAVVKMLPSFVRRTPDGTENGDFLALDLGGTNFRVLLVKIRSGKKRTVEMHNKIYAIPIEIMQGTGEELFDHIVSCISDFLDYMGIKGPRMPLGFTFSFPCQQTSLDAGILITWTKGFKATDCVGHDVVTLLRDAIKRREEFDLDVVAVVNDTVGTMMTCAYEEPTCEVGLIVGTGSNACYMEEMKNVEMVEGDQGQMCINMEWGAFGDNGCLDDIRTHYDRLVDEYSLNAGKQRYEKMISGMYLGEIVRNILIDFTKKGFLFRGQISETLKTRGIFETKFLSQIESDRLALLQVRAILQQLGLNSTCDDSILVKTVCGVVSRRAAQLCGAGMAAVVDKIRENRGLDRLNVTVGVDGTLYKLHPHFSRIMHQTVKELSPKCNVSFLLSEDGSGKGAALITAVGVRLRTEASS [HK1] | -0.0302 | 51.5 | 51.9 | -0.149 | -0.647 | -0.641
MICAL3 | -0.213 | 51.4 | 50.5 | -0.0995 | -0.909 | -0.953
MIIYRDLISHDEMFSDIYKIREIADGLCLEVEGKMVSRTEGNIDDSLIGGNASAEGPEGEGTESTVITGVDIVMNHHLQETSFTKEAYKKYIKDYMKSIKGKLEEQRPERVKPFMTGAAEQIKHILANFKNYQFFIGENMNPDGMVALLDYREDGVTPYMIFFKDGLEMEKC [TPT1] | 0.476 | 53.5 | 52.9 | -0.0912 | 0.357 | 0.0736
MIKKFDKKDEESGSGSNPFQHLEKSAVLQEARIFNETPINPRRCLHILTKILYLLNQGEHFGTTEATEAFFAMTRLFQSNDQTLRRMCYLTIKEMATISEDVIIVTSSLTKDMTGKEDVYRGPAIRALCRITDGTMLQAIERYMKQAIVDKVSSVSSSALVSSLHMMKISYDVVKRWINEAQEAASSDNIMVQYHALGVLYHLRKNDRLAVSKMLNKFTKSGLKSQFAYCMLIRIASRLLKETEDGHESPLFDFIESCLRNKHEMVIYEAASAIIHLPNCTARELAPAVSVLQLFCSSPKPALRYAAVRTLNKVAMKHPSAVTACNLDLENLITDSNRSIATLAITTLLKTGSESSVDRLMKQISSFVSEISDEFKVVVVQAISALCQKYPRKHSVMMTFLSNMLRDDGGFEYKRAIVDCIISIVEENPESKEAGLAHLCEFIEDCEHTVLATKILHLLGKEGPRTPVPSKYIRFIFNRVVLENEAVRAAAVSALAKFGAQNESLLPSILVLLQRCMMDTDDEVRDRATFYLNVLQQRQMALNATYIFNGLTVSVPGMEKALHQYTLEPSEKPFDMKSIPLAMAPVFEQKAEITLVATKPEKLAPSRQDIFQEQLAAIPEFLNIGPLFKSSEPVQLTEAETEYFVRCIKHMFTNHIVFQFDCTNTLNDQLLEKVTVQMEPSDSYEVLSCIPAPSLPYNQPGICYTLVRLPDDDPTAVAGSFSCTMKFTVRDCDPNTGVPDEDGYDDEYVLEDLEVTVSDHIQKVLKPNFAAAWEEVGDTFEKEETFALSSTKTLEEAVNNIITFLGMQPCERSDKVPENKNSHSLYLAGIFRGGYDLLVRSRLALADGVTMQVTVRSKERTPVDVILASVG [COPG2] | -0.192 | 52 | 51.8 | -0.304 | 0.652 | 0.0351
MILNSLSLCYHNKLILAPMVRVGTLPMRLLALDYGADIVYCEELIDLKMIQCKRVVNEVLSTVDFVAPDDRVVFRTCEREQNRVVFQMGTSDAERALAVARLVENDVAGIDVNMGCPKQYSTKGGMGAALLSDPDKIEKILSTLVKGTRRPVTCKIRILPSLEDTLSLVKRIERTGIAAIAVHGRKREERPQHPVSCEVIKAIADTLSIPVIANGGSHDHIQQYSDIEDFRQATAASSVMVARAAMWNPSIFLKEGLRPLEEVMQKYIRYAVQYDNHYTNTKYCLCQMLREQLESPQGRLLHAAQSSREICEAFGLGAFYEETTQELDAQQARLSAKTSEQTGEPAEDTSGVIKMAVKFDRRAYPAQITPKMCLLEWCRREKLAQPVYETVQRPLDRLFSSIVTVAEQKYQSTLWDKSKKLAEQAAAIVCLRSQGLPEGRLGEESPSLHKRKREAPDQDPGGPRAQELAQPGDLCKKPFVALGSGEESPLEGW [DUS2] | -0.0157 | 50.3 | 50.9 | -0.0821 | 0.209 | 0.349
